According to publication PMC11855606:

Assays:
[1] = target: growth hormone receptor a (ghra) of Cynoglossus semilaevis, mScarlet-I fusion (pcDNA3.1-S-ghra) (Cynoglossus semilaevis); experiment: FRET or BRET; acceptor bleaching FRET in HEK 293T cells co-transfected with the mNeonGreen-ligand and mScarlet-I-receptor plasmids at a 1:2 ratio, 48 h after transfection, Nikon A1R HD25 confocal microscope; FRETeff = (Dpost - Dpre)/Dpost
[2] = target: growth hormone receptor b (ghrb) of Cynoglossus semilaevis, mScarlet-I fusion (pcDNA3.1-S-ghrb) (Cynoglossus semilaevis); experiment: as above
Sequence of growth hormone receptor b (ghrb) of Cynoglossus semilaevis, mScarlet-I fusion (pcDNA3.1-S-ghrb) (Cynoglossus semilaevis) (main, as listed by the source): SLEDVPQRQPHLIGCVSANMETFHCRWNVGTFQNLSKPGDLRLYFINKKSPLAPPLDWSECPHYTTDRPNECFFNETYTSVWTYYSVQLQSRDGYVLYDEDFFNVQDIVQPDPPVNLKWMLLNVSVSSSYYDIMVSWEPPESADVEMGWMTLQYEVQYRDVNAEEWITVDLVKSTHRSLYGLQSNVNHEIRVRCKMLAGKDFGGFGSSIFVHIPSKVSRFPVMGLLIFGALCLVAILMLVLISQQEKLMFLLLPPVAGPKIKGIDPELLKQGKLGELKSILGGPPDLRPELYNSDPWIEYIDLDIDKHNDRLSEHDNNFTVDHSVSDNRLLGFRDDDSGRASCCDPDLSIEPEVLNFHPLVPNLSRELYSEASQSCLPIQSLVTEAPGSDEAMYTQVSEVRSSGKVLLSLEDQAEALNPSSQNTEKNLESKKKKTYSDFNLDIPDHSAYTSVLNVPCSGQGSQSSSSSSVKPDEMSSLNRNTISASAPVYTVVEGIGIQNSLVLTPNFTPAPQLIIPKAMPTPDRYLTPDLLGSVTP

Sequence of growth hormone receptor a (ghra) of Cynoglossus semilaevis, mScarlet-I fusion (pcDNA3.1-S-ghra) (Cynoglossus semilaevis) (main, as listed by the source): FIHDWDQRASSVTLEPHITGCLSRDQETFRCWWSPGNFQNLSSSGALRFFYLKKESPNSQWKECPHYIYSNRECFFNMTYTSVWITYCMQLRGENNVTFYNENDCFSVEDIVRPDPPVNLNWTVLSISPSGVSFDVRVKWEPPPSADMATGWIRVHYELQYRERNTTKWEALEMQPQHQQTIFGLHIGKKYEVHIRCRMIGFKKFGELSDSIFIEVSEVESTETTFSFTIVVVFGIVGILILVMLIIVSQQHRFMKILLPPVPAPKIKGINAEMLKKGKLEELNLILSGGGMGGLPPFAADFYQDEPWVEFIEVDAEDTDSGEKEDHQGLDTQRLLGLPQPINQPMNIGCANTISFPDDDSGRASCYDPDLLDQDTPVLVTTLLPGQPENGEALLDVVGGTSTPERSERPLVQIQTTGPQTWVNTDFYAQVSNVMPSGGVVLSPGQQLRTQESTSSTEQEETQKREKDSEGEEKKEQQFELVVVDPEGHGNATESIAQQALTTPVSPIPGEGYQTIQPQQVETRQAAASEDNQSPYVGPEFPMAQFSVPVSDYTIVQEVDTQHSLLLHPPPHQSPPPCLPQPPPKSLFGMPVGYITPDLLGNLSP

FRET efficiency [1]	FRET efficiency [2]	Substance
0.0534	0.036	growth hormone (gh) of Cynoglossus semilaevis, mNeonGreen fusion (pcDNA3.1-N-gh) (ligand)
0.0509		somatolactin (sl) of Cynoglossus semilaevis, mNeonGreen fusion (pcDNA3.1-N-sl) (ligand)
